Values of other authors as cited in US20200031943A1 (priority 2017, published 2020).
Read-outs that look alike come from different tables or passages of the source.

Settings: for percentage of patients reported as developing influenza / upper respiratory infections (percentage of patients): SLE patients; for percentage of patients reported as developing influenza: placebo 2.0%; for upper respiratory infections (percentage of patients): placebo 28.7%
[1] = 300 mg intravenous every 4 weeks for 48 weeks
[2] = 1,000 mg intravenous every 4 weeks for 48 weeks

anifrolumab
percentage of patients reported as developing influenza [1]: 6.1% | upper respiratory infections (percentage of patients) [1]: 36.4% | incidence of serious adverse events (300 mg or 1,000 mg intravenous every 4 weeks for 48 weeks vs placebo): did not increase the incidence of serious adverse events | percentage of patients reported as developing influenza [2]: 7.6% | upper respiratory infections (percentage of patients) [2]: 41.9% | frequency of herpes zoster and influenza infections (anifrolumab-treatment group vs placebo): slightly more frequent
